Laboratory results reported in US20030157712.

Target: GST-EphB1cy, self-phosphorylated in vitro (+ATP) (UniProt P54762)
Sequence (P54762 564-984): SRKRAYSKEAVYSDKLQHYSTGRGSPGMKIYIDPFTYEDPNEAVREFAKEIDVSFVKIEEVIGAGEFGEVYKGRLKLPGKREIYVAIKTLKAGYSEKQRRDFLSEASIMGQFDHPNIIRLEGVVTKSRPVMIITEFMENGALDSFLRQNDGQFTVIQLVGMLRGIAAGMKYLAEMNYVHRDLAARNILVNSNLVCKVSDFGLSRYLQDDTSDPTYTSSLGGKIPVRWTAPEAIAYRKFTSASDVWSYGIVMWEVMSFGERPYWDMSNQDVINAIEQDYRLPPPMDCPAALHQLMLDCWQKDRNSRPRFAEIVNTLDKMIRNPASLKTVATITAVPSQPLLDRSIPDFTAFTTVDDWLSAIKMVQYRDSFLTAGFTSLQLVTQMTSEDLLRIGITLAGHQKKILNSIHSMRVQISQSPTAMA

purified recombinant LMW-PTP (A isoform)
in vitro tyrosine phosphorylation of LMW-PTP: EphB1 receptor tyrosine kinase phosphorylates LMW-PTP in vitro
